Results as given in patent US6787341B2, “Pharmacological targeting of bacterial DNA ligase for treatment and prevention of bacterial infections” (priority 2001, dated 2004).

B1: D36A: E. coli LigA with Asp36 replaced by alanine (protein, UniProt P15042 1-671, looked up, variant D36A)
DNA ligase: MESIEQQLTELRTTLRHHEYLYHVMDAPEIPDAEYARLMRELRELETKHPELITPDSPTQRVGAAPLAAFSQIRHEVPMLSLDNVFDEESFLAFNKRVQDRLKNNEKVTWCCELKLDGLAVSILYENGVLVSAATRGDGTTGEDITSNVRTIRAIPLKLHGENIPARLEVRGEVFLPQAGFEKINEDARRTGGKVFANPRNAAAGSLRQLDPRITAKRPLTFFCYGVGVLEGGELPDTHLGRLLQFKKWGLPVSDRVTLCESAEEVLAFYHKVEEDRPTLGFDIDGVVIKVNSLAQQEQLGFVARAPRWAVAFKFPAQEQMTFVRDVEFQVGRTGAITPVARLEPVHVAGVLVSNATLHNADEIERLGLRIGDKVVIRRAGDVIPQVVNVVLSERPEDTREVVFPTHCPVCGSDVERVEGEAVARCTGGLICGAQRKESLKHFVSRRAMDVDGMGDKIIDQLVEKEYVHTPADLFKLTAGKLTGLERMGPKSAQNVVNALEKAKETTFARFLYALGIREVGEATAAGLAAYFGTLEALEAASIEELQKVPDVGIVVASHVHNFFAEESNRNVISELLAEGVHWPAPIVINAEEIDSPFAGKTVVLTGSLSQMSRDDAKARLVELGAKVAGSVSKKTDLVIAGEAAGSKLAKAQELGIEVIDEAEMLRLLGS
B2: NΔ38: N-terminal deletion of E. coli DNA ligase LigA eliminating part of domain Ia (protein, UniProt P15042 39-671, looked up, fragment)
chain: MRELRELETKHPELITPDSPTQRVGAAPLAAFSQIRHEVPMLSLDNVFDEESFLAFNKRVQDRLKNNEKVTWCCELKLDGLAVSILYENGVLVSAATRGDGTTGEDITSNVRTIRAIPLKLHGENIPARLEVRGEVFLPQAGFEKINEDARRTGGKVFANPRNAAAGSLRQLDPRITAKRPLTFFCYGVGVLEGGELPDTHLGRLLQFKKWGLPVSDRVTLCESAEEVLAFYHKVEEDRPTLGFDIDGVVIKVNSLAQQEQLGFVARAPRWAVAFKFPAQEQMTFVRDVEFQVGRTGAITPVARLEPVHVAGVLVSNATLHNADEIERLGLRIGDKVVIRRAGDVIPQVVNVVLSERPEDTREVVFPTHCPVCGSDVERVEGEAVARCTGGLICGAQRKESLKHFVSRRAMDVDGMGDKIIDQLVEKEYVHTPADLFKLTAGKLTGLERMGPKSAQNVVNALEKAKETTFARFLYALGIREVGEATAAGLAAYFGTLEALEAASIEELQKVPDVGIVVASHVHNFFAEESNRNVISELLAEGVHWPAPIVINAEEIDSPFAGKTVVLTGSLSQMSRDDAKARLVELGAKVAGSVSKKTDLVIAGEAAGSKLAKAQELGIEVIDEAEMLRLLGS
B3: NΔ78: N-terminal deletion of E. coli DNA ligase LigA eliminating domain Ia (protein, UniProt P15042 79-671, looked up, fragment)
chain: MLSLDNVFDEESFLAFNKRVQDRLKNNEKVTWCCELKLDGLAVSILYENGVLVSAATRGDGTTGEDITSNVRTIRAIPLKLHGENIPARLEVRGEVFLPQAGFEKINEDARRTGGKVFANPRNAAAGSLRQLDPRITAKRPLTFFCYGVGVLEGGELPDTHLGRLLQFKKWGLPVSDRVTLCESAEEVLAFYHKVEEDRPTLGFDIDGVVIKVNSLAQQEQLGFVARAPRWAVAFKFPAQEQMTFVRDVEFQVGRTGAITPVARLEPVHVAGVLVSNATLHNADEIERLGLRIGDKVVIRRAGDVIPQVVNVVLSERPEDTREVVFPTHCPVCGSDVERVEGEAVARCTGGLICGAQRKESLKHFVSRRAMDVDGMGDKIIDQLVEKEYVHTPADLFKLTAGKLTGLERMGPKSAQNVVNALEKAKETTFARFLYALGIREVGEATAAGLAAYFGTLEALEAASIEELQKVPDVGIVVASHVHNFFAEESNRNVISELLAEGVHWPAPIVINAEEIDSPFAGKTVVLTGSLSQMSRDDAKARLVELGAKVAGSVSKKTDLVIAGEAAGSKLAKAQELGIEVIDEAEMLRLLGS

What was measured:
E. coli LigA [1] = type: biochemical
Protocol: (§1) FIG. 12A: Aliquots (5 μg) of wild-type (WT) E. coli ligase, N-terminal deletion mutants NΔ38 and NΔ78, and the full-length ligase proteins containing the indicated alanine mutations in domain Ia were analyzed by SDS-PAGE. A Coomassie blue-stained gel is shown. FIG. 12B: Ligase adenylation reaction mixtures (20 μl) containing 50 mM Tris-HCl (pH 7.5), 5 mM DTT, 5 mM MgCl2, 1 μM [α-^32P]NAD^+ and 8 pmol of WT ligase, NΔ38, NΔ78, or the indicated alanine mutants were incubated for 5 min at 37° C. The reaction products were resolved by SDS-PAGE and visualized by autoradiography. FIG. 12C: Nick joining reaction mixtures (20 μl) containing 50 mM Tris-HCl (pH 7.5), 10 mM (NH4)2SO4, 5 mM DTT, 5 mM MgCl2, 20 μM NAD^+, 1 pmol of ^32P-labeled nicked DNA, and increasing amounts of WT ligase or the indicated alanine mutants were incubated for 10 min at 22° C. The extents of ligation are plotted as a function of input protein.
To further probe the role of domain Ia in NAD^+ recognition and nucleotidyl transfer, single alanine substitutions were introduced at six positions in the Ia domain of E. coli LigA. The six mutated Eco ligase residues—Glu10, Tyr22, His23, Asp32, Tyr35, and Asp36—correspond to the six residues that were subjected to alanine scanning mutagenesis in AmEPV ligase (FIG. 11). […] The conserved positions are denoted by shaded boxes in FIG. 11. The Eco ligase mutants E10A, Y22A, H23A, D32A, Y35A, and D36A were produced in E. coli and purified by Ni-agarose chromatography in parallel with wild-type ligase (FIG. 12A).
To evaluate the roles of charge, hydrogen bonding potential, and steric constraints in the functions of the domain Ia residues implicated in the step 1 reaction with NAD^+, the effects of conservative substitutions were tested. Tyr22 and Tyr35 were replaced by Phe and Ser, His23 was changed to Tyr, and Asp32 and Asp36 were mutated to Glu and Asn. The recombinant mutant ligases were purified from soluble bacterial extracts by Ni-agarose chromatography (FIG. 15A). The specific activity of each mutant was determined under steady-state conditions by protein titration and normalized to the specific activity of wild-type ligase.

E. coli LigA [2] = type: biochemical; details: qualitative
Protocol: as §1
FIG. 15A: Aliquots (5 μg) of wild-type (WT) E. coli ligase and proteins containing the indicated mutations in domain Ia were analyzed by SDS-PAGE. The Coomassie blue-stained gel is shown. The positions and sizes (in kDa) of marker proteins are indicated on the left. FIG. 15B: Ligase adenylation reaction mixtures (20 μl) containing 50 mM Tris-HCl (pH 7.5), 5 mM DTT, 5 mM MgCl2, 1 μM [α-^32P]NAD^+ and 8 pmol of WT ligase or the indicated mutants were incubated for 5 min at 37° C. The reaction products were resolved by SDS-PAGE and visualized by autoradiography.
Reaction mixtures containing (per 20 μl) 50 mM Tris-HCl (pH 7.5), 5 mM DTT, 5 mM MgCl2, 1 μM [^32P-AMP]NAD^+ and 8 pmol of ligase were incubated at 22° C. Aliquots (20 μl) were withdrawn at 15, 30, 60 and 120 s and then quenched immediately with SDS. The products were analyzed by SDS-PAGE. Formation of the ligase-[^32P]AMP adduct is plotted as a function of time.
The first step in DNA ligation involves formation of a covalent enzyme-adenylate intermediate.

E. coli LigA [3] = type: biochemical; details: for phosphodiester formation at pre-adenylated nick: qualitative, magnesium, no added NAD+
Protocol: (§2) Reaction mixtures containing 1 pmol of ^32P-labeled nicked DNA-adenylate (AppDNA) and either 8 pmol of wild-type (WT) E. coli ligase, deletion mutants NΔ38 and NΔ78, or the full-length ligase proteins containing the indicated alanine mutations in domain Ia were incubated for 60 min at 22° C. The reaction products were resolved by denaturing PAGE. An autoradiograph of the gel is shown. Control reaction mixtures containing either ^32P-labeled nicked DNA-adenylate (AppDNA) or nicked DNA (pDNA) substrates and no ligase are shown in lanes -. The positions of the pDNA, AppDNA, and ligated 36-mer DNA strands are indicated by arrows on the right. The position of the radiolabeled phosphate of AppDNA is denoted by •. The nicked DNA-adenylate substrate used in the ligation reactions is illustrated at the bottom.
(§3) The nicked DNA-adenylate substrate is illustrated in FIG. 13. The DNA-adenylate ligation reaction mixtures (20 μl) contained 50 mM Tris-HCl (pH 7.5), 5 mM DTT, 5 mM MgCl2, 200 fmol of nicked DNA-adenylate substrate, 2 pmol of wild-type or mutant EcoLigA proteins as specified were incubated at 22° C. The sealing reactions were initiated by adding ligase. Aliquots (20 μl) were withdrawn at the times specified and quenched immediately with EDTA and formamide. The products were resolved by denaturing PAGE and the extents of ligation were determined by scanning the gel with a phosphorimager. The extent of strand joining is plotted as a function of reaction time.
(§4) The third step of the ligation pathway entails attack of the 3′ OH of the nick on the 5′ PO4 of the DNA-adenylate to form a phosphodiester and release AMP. Step 3 of the ligation reaction was assayed using a pre-adenylated nicked DNA substrate labeled with ^32P on the 5′ PO4 of the DNA-adenylate strand (FIG. 13).

E. coli LigA [4] = details: reference 19; cited from earlier work
E. coli LigA [5] = biological target: E. coli LigA (Escherichia coli, UniProt P15042); type: biochemical
Protocol: as §2, §3, §4

| Molecule | nick ligation (qualitative) (E. coli LigA [1]) | Nick Joining Activity (% of WT) (E. coli LigA [1]; specific activity by protein titration under steady-state conditions, normalized to wild-type ligase) | ligase adenylation (ligase-AMP formation) with NAD+ (E. coli LigA [2]) | effect on rate or extent (yield) of phosphodiester formation at a pre-adenylated nick (E. coli LigA [3]) | phosphodiester formation at pre-adenylated nick (E. coli LigA [3]) | nick joining activity (prior studies) (E. coli LigA [4]) | effect on the rate of approach to the endpoint of step 3 reaction (E. coli LigA [5]) [fold] |
| --- | --- | --- | --- | --- | --- | --- | --- |
| B1 | virtually inert | 0.2 % of WT | virtually inert | no effect | catalytically active | – | – |
| B2 | – | – | inert | no effect | capable of forming a phosphodiester bond | complete loss | – |
| B3 | – | – | inert | – | capable of forming a phosphodiester bond | complete loss | 2 |
